# According to the nanobody polyreactivity screen of Harvey et al. (2022):
# Experiment: yeast display, Sf9 membrane polyspecificity reagent, FACS + sequencing; frameworks hold sequencing errors
# How it was run: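 Nanobodies came from a synthetic yeast display library in Saccharomyces cerevisiae BJ5465, induced with galactose for 36–48 hours and stained for 1 hour at 4 °C with 10% biotinylated, detergent-solubilized Sf9 membrane reagent. Cells were enriched on streptavidin microbeads and then FACS-sorted, with low and high (top ~1%) gates set on anti-HA fluorescence for expression and streptavidin fluorescence for reagent binding. Each polyreactivity label reflects the gate a clone came from. Genes were amplified by colony PCR, sequenced by MiSeq 2 × 250 and filtered by CDR length.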
row,Sequence,polyreactivity (PSR sort gate)
1,QVQLVESGGGLVQAGGSLRLSCAASGIIFEGNVMGWYRQAPGKERELVAAITSDTSTNYADSVKGRFTISRDNAKNTVYIQMNSLKPEDTAVYYCNAVIGTDYYYSGTAEFYYWGQGTQVTVSS,low polyreactivity
2,QVQLVESGGGLVQAGGSLRLSCAASGIIFEGYAMGWYRQAPGKERELVAAISQSGGSTRYADSVKGRFTISRDNAKNTVYLQMNSLKPEDTAVYYCAKLSLSWDGYYQYDYWGQGTQVTVSS,low polyreactivity
3,QVQLVESGGGLVQAGGSLRLSCAASGIIFESNVMGWYRQAPGKERELVAAISRSGSRTYYADSVKGRFTISRDNAKNTVYLQMNSLKPEDTAVYYCATDSHTADEYEHWGQGTQVTVSS,high polyreactivity
4,QVQLVESGGGLVQAGGSLRLSCAASGIIFEYYDMGWYRQAPGKERELVAAIDSGGSTYYADSVKGRFTISRDNAKNTVYLQMNSLKPEDTAVYYCAAETVRYEWGESPAALFDYWGQGTQVTVSS,low polyreactivity
5,QVQLVESGGGLVQAGGSLRLSCAASGIIFFAYAMGWYRQAPGKERELVAAISSSGGRTYYSDSVKGRFTISRDNAKNTVYLQMNSMIPEDTAVYYCTARWHGSFDYWGQGTQVTVSS,low polyreactivity
6,QVQLVESGGGLVQAGGSLRLSCAASGIIFFDYAMGWYRQAPGKERELVAAITGSGGRTYYADSVKGRFTISRDNAKNTVYLQMNSLKPEDTAVYYCAAARYYYGGDYWGQGTQVTVST,high polyreactivity
7,QVQLVESGGGLVQAGGSLRLSCAASGIIFFEYVMGWYRQAPGQERELVAAINRSGGRTYYADSVKGRFTISRDNAKNTVYLQMNSLKPEDTAVYYCAAEHYTGSGGYDYWGHGTQVTVSS,high polyreactivity
8,QVQLVESGGGLVQAGGSLRLSCAASGIIFFGYAMGWYRQAPGKERELVADITNGGRTYYADSVKGRFTISRDNAKNTVYLQMNSLKPEDTAVYYCAADAFWEVYYYNALEYDYWGQGTQVTVSS,high polyreactivity
9,QVQLVESGGGLVQAGGSLRLSCAASGIIFGAYAMGWYRQAPGKERELVAAITYSSGSTYYADSVKGRFTISRDNAKNTVYLQMNRLKPEDTAVYYCAKTNFSQSSRSNYDYWGQGTQVTVSS,low polyreactivity
10,QVQLVESGGGLVQAGGSLRLSCAASGIIFGGNVMGWYRQAPGKERELVAAISGTGDNTYYADSVKGRFTISRDNAKNTVYLQMNSLKPEDTAVYYCNTVYYGWPRRYGYWGQGTQVTVSS,high polyreactivity
11,QVQLVESGGGLVQAGGSLRLSCAASGIIFGGYAMGWYRQAPGKERELVASITWGGGSTYYADSVKGRFTISRDNAKNTVYLQMNSLKPEDTAVYYCNKRGYPGYDWGQGTQVTVSS,low polyreactivity
12,QVQLVESGGGLVQAGGSLRLSCAASGIIFGHYALGWYRQAPGKERELVAAITASSGNTYYADSVKGRFTISRDNAKNTVYLQMNSLKPEDTAVYYCAAVSYSSYRYDSWGQGTQVTVSS,high polyreactivity
13,QVQLVESGGGLVQAGGSLRLSCAASGIIFGIYARGWYRQAPGKERELVAAIRYRGGNTNYADSVKGRFTISRDNAKNTVYLQMNSLKPEDTAVYYCAAKRFADPYYYWGQGTQVTVSS,high polyreactivity
14,QVQLVESGGGLVQAGGSLRLSCAASGIIFGKYDMGWYRQAPGKEREMVAAITSGTSTNYADSVKGRFTISRDNAKNTVYLQMNSLKPEDTAVYSCAADVYLYYPYFGHRRYNYWGQGTQVTVSS,high polyreactivity
15,QVQLVESGGGLVQAGGSLRLSCAASGIIFGRNARGWYRQAPGKEREMVAGITRRGARTYYADSVKGRFTISRDNAKNTVDLQMKSLKPEDTSVYYCATYSVQTDYGRGDYWGQGTKVTVSS,high polyreactivity
16,QVQLVESGGGLVQAGGSLRLSCAASGIIFGTNAMGWSRQAPGKERELVAAITWSGGTYYADSVKGRFTISRDNAKITVYLQMNSQKPEDTAVYYCNAEWRVYPDLYDYWGQGTQVTVSS,low polyreactivity
17,QVQLVESGGGLVQAGGSLRLSCAASGIIFGTNAMGWSRQAPGKERELVAGITSSGDSTYYADSVKGRFTISRDNAKNTVYLQMNSLKPEDTAVYYCARDIRTREFDSWGQGTQVTVSS,low polyreactivity
18,QVQLVESGGGLVQAGGSLRLSCAASGIIFGTNAMGWYRQAPGKERELVAYITSGGSTYADSVKGRFKISRDNAKNTVYLQMNSLKPEDTAVYSCAAYVFWAFYEYDYWGQGTQVTVSS,low polyreactivity
19,QVQLVESGGGLVQAGGSLRLSCAASGIIFGTYAMGWYRQAPGKERELVAVITSGAGRTYYADSVKGRFTISRDNAKNTVYLQMNSLKPEDTAVDYCAARVWYPRYDYWGQGTQVTVSS,high polyreactivity
20,QVQLVESGGGLVQAGGSLRLSCAASGIIFGVYAMGWYREAPGKERELVAAISRSGDSTYYADSVKGRFTISRDNAKNTVYLQMNSLKPEDTAVYYCAAEWYFTFDYWGQGTQVTVSS,low polyreactivity
21,QVQLVESGGGLVQAGGSLRLSCAASGIIFGVYAMGWYRQAPGKERELVAAISRSGDSTYYADSVKGRFTISRDNAKNTVYLQMNSLKPEDTAVYYCAAEWYITFDYWGQGTQVTVSS,low polyreactivity
22,QVQLVESGGGLVQAGGSLRLSCAASGIIFGWYAMGWYRKAPGKERELVAAISSGGRTNYADSVKGRFTISRDNAKNTVYLQMNSLKPEDTAVYYCAAAYIRGSRRYDYWGQGTQVTVSS,high polyreactivity

row,Sequence,polyreactivity (PSR sort gate)
1,QVQLVESGGGLVQAGGSLRLSCAASGIIFGYYAMGWYRQAPGKERELVAAISWSGVSTYYADSVKGRFTISRDNAKNTVYLQMHSLKPEDTAVYYCAVGYVLTGVFQARFDYWGQGTQVTVSS,high polyreactivity
2,QVQLVESGGGLVQAGGSLRLSCAASGIIFHFNAMGWYRQAPGKERELVAAITSGANTNYADSVKGRFTISRDNAKNTVYLQMNSLKPEDTSVYYCATRPHTDVRFVRTRRYDYWGQGTQVTVSS,low polyreactivity
3,QVQLVESGGGLVQAGGSLRLSCAASGIIFHFNEMGWYRQAPGKERELVAAITSGGSTNYADSVKGRFTISRDNAKNTVYLQMNSLKPEDTAVYYCAARRGLRLFAYRHGYWGQGTQVTVSS,low polyreactivity
4,QVQLVESGGGLVQAGGSLRLSCAASGIIFHKYAMGWYRQAPGKERELVAVITWRGGSTYYADSVKGRFTISRDHAKNTVYLQMNSLKPEDTAVYYCAARSQYRDRTGQYGYWGQGTQVTVSS,high polyreactivity
5,QVQLVESGGGLVQAGGSLRLSCAASGIIFIGNAMGWYRQAPGKERELVAAIRSGTGTNYADSVKGRFTISRDNAKNTVYLQMNSLKPEDTAVYYSNADYNSGTYTQGTHEGDYWGQGTQVTVSS,low polyreactivity
6,QVQLVESGGGLVQAGGSLRLSCAASGIIFISNAMGWSRQAPGTERELVADITSGGGSTYYADSVKGRFTISRDNAKNTVDLQMNSLKPDDTAVYYGAKRATGAYVFFFDSWGQGTQVTVSS,low polyreactivity
7,QVQLVESGGGLVQAGGSLRLSCAASGIIFKEYALGGYRQAPGKERELVARITGSTGSTYADSVNGRFTISRDNAKNTVYLQMNSLKPEDTAVYYCAKYIGRGERLSDTRYGLDYWGQGTQVSVSS,low polyreactivity
8,QVQLVESGGGLVQAGGSLRLSCAASGIIFKEYAMGGYRPAPGKERELVAAISGRGGSTYYADSVKGRFSISRDNAKNTVYLQMSSLKPEDTAVYYCNAVASWQRYDYWGQGTQVTVSS,high polyreactivity
9,QVQLVESGGGLVQAGGSLRLSCAASGIIFKIYAMGWYRQAPGKERELVAAISKRGASTYYADSVKGRFTISRDNAKNTVYLQMNSLKPEDTAVYYCAAYRQGSAYDYWGQGTQVTVSS,high polyreactivity
10,QVQLVESGGGLVQAGGSLRLSCAASGIIFKIYAMGWYRQAPGKERELVAAISWRGGSTYYADSVKGRFTISRDNAKNTVYLQMNSLKPEDTAVYYCAAARGYRTGYGYWGQGTQVTVSS,high polyreactivity
11,QVQLVESGGGLVQAGGSLRLSCAASGIIFKYYAMGWYRPAPGKERELVAAITASGGRTYYADSVKGRFTISRDNAKNTVYLQMNSLKPEDTAVYYCAADSRSAYDYWGQGTQVTVSS,high polyreactivity
12,QVQLVESGGGLVQAGGSLRLSCAASGIIFKYYAMGWYRQAPGKERELVAAITRSGGSTYYADSVKGRFTISRDNAKNTVYLQMYSLKPEDTAVYYCAAQTGYSYGITWQFTKYNYWGQGTQVTVSS,low polyreactivity
13,QVQLVESGGGLVQAGGSLRLSCAASGIIFLDNVMRWYRQAPGKERELVAAISSSGGSTYYADSVKGRFTISRDNAKNTVYLQMNSLKPEDTAVYYCAAYFRRGFYYWGQGTQVTVSS,high polyreactivity
14,QVQLVESGGGLVQAGGSLRLSCAASGIIFLENAMGWYRQAPGKEREFVAAISRSGGITYYADSVKGRFTISRDNAKNTVYLQMNSLKPEDTAVYYCAAVGRDRYRHSPQPLYDYWGQGTQVTVSS,low polyreactivity
15,QVQLVESGGGLVQAGGSLRLSCAASGIIFLEYAMGWYRQAPGKERELVAAISSDDGSSTYYADSVKGRFTISRDNAKNTVYLKMNSLKPEDTAVYYCAAYGGGGYYYDYEYWGQGTQVTVSS,high polyreactivity
16,QVQLVESGGGLVQAGGSLRLSCAASGIIFLGYARGWYRQAPGKERELVADIYSGVRTYYADSVKGRFTISRDNAKNTVYLQMNSLKPEDTAVYYCNATWTPYSSKQYYYWGQGTQVTVSS,low polyreactivity
17,QVQLVESGGGLVQAGGSLRLSCAASGIIFLKYAMGWYRQAPGKERELVAAISRSGGGTYYADSVKGRFTISRDNAKNTVYLQMNSLKLEDTAVYYCAARGVDRQGYRFYYWGQGTQVTVSS,high polyreactivity
18,QVQLVESGGGLVQAGGSLRLSCAASGIIFLNYVMGWYRQAPGKERELVAAITTSGASTYYADSVKGRFTISRDNAKNTVYLQMNSLKPEDTAVYYCAAVFRHARYRYDYWGLGTQVTVSS,high polyreactivity
19,QVQLVESGGGLVQAGGSLRLSCAASGIIFLSYAMGWYRQAPGKERELVAAIRSRGDSTYYADSVKGRFTISRDNAKNTVYLQMNSLKPEDTAVYYCNARQRRYPYGYWGQGTQVTVSS,high polyreactivity
20,QVQLVESGGGLVQAGGSLRLSCAASGIIFLYYAMGWYRQAPGKERELVAAISKSGGSTYYADSVKGRFTISRDNAKNTVYLQMNSLKPEDTAVYYCAARLWHLSYAGQGGDYWGQGTQVTVSS,low polyreactivity
21,QVQLVESGGGLVQAGGSLRLSCAASGIIFNANTMLWYRQAPGKERELVAAITRGGSTNYADSEKGRFTISRDNAKNTVYLQMNSLKPEDTAVYYCAARTGYYCGSGGNRYISPYDYWGQGTQVTVSS,low polyreactivity
